Data: the supplement of paper PMC7125110
± gives the standard error. Fewer inactive variants are shown than the library holds.

B1: glmS ribozyme (parent)
chain: AUAAAAGCGCCAGAACUACAGAAAUGUAGUUGACGAGGAGGAGGUUUAUCGAAUUUUCGGCGGAUGCCUCCAAA

Tests used:
Conditions in all cases: with glucosamine-6-phosphate
glucosamine-6-phosphate [1] = variants of: B1; test: self-cleavage kobs at 160 uM GlcN6P; higher = faster cleavage; RNA array
Method in brief: (§1)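 Ribozyme variants carrying barcodes were transcribed in situ on sequenced MiSeq chips by E. coli RNA polymerase and tracked at 37 °C with a hybridised Cy3 probe. They were exposed to 40 μM to 10 mM glucosamine-6-phosphate in HEPES/KCl/Mg(OAc)2 buffer. kobs came from exponential decay fits of normalised per-tile medians, and kcat and KM from weighted Michaelis–Menten fits.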

glucosamine-6-phosphate [2] = variants of: B1; test: self-cleavage kobs at 640 uM GlcN6P; higher = faster cleavage; RNA array
Method in brief: as §1

glucosamine-6-phosphate [3] = variants of: B1; test: self-cleavage kobs at 2500 uM GlcN6P; higher = faster cleavage; RNA array
Method in brief: as §1

glucosamine-6-phosphate [4] = variants of: B1; test: self-cleavage kobs at 10000 uM GlcN6P; higher = faster cleavage; RNA array
Method in brief: as §1

Variant | self-cleavage kobs at 160 uM GlcN6P (glucosamine-6-phosphate [1]) [s⁻¹] | self-cleavage kobs at 640 uM GlcN6P (glucosamine-6-phosphate [2]) [s⁻¹] | self-cleavage kobs at 2500 uM GlcN6P (glucosamine-6-phosphate [3]) [s⁻¹] | self-cleavage kobs at 10000 uM GlcN6P (glucosamine-6-phosphate [4]) [s⁻¹]
G29U C34U U46G U47G G63A | < 1e-05 | < 1e-05 | < 1e-05 | 
G29A C50A A53C | < 1e-05 |  |  | 
A14U U45A U46A | 0.00056 ± 0.00015 |  | 0.00178 ± 0.00057 | 
A6C G40U C61A | < 1e-05 |  | < 1e-05 | < 1e-05
U30C G40U U65G | < 1e-05 |  |  | 
C16A G60C C67G | < 1e-05 |  | < 1e-05 | 
G9C G38C | < 1e-05 |  |  | 
G7U G38C C50A | < 1e-05 | < 1e-05 |  | 
A36G A42U U56C | < 1e-05 | < 1e-05 | < 1e-05 | 
C10A U30G A48U | < 1e-05 | < 1e-05 | < 1e-05 | < 1e-05
C8U A36U G40C U56A | < 1e-05 |  | < 1e-05 | 
A14C U55G C67U | 0.00016 ± 4.2e-05 | 0.000309 ± 9.8e-05 | 0.000399 ± 0.00015 | 
C34G U46A | < 1e-05 |  | < 1e-05 | < 1e-05
C11U U46G C50G | 5.55e-05 ± 1.9e-05 | 6.4e-05 ± 1.8e-05 |  | 
C8A A42U | < 1e-05 | < 1e-05 |  | 
G13A A33C | < 1e-05 | < 1e-05 |  | < 1e-05
U31A C34A U55A C67G | < 1e-05 | < 1e-05 | < 1e-05 | 
A14C U30G G41C A53G | < 1e-05 |  | < 1e-05 | 
G7U A12G U45C U46G C71U | < 1e-05 |  | < 1e-05 | 
G37A U46G A53G C61A C70A | < 1e-05 |  |  | 
A39C C61U C71U | < 1e-05 | < 1e-05 | < 1e-05 | 
C11U G41C A52U | < 1e-05 | < 1e-05 | < 1e-05 | 
C10U U46C C70U | < 1e-05 |  |  | 
G32U G38U G43U A53U | < 1e-05 | < 1e-05 |  | 
G29C U30C G37C C70G | 9.14e-05 ± 2.9e-05 | 0.000358 ± 0.00011 | 0.000111 ± 3.5e-05 | 
G32C A33U A52G | < 1e-05 | < 1e-05 | < 1e-05 | 

Variant | self-cleavage kobs at 160 uM GlcN6P (glucosamine-6-phosphate [1]) [s⁻¹] | self-cleavage kobs at 640 uM GlcN6P (glucosamine-6-phosphate [2]) [s⁻¹] | self-cleavage kobs at 2500 uM GlcN6P (glucosamine-6-phosphate [3]) [s⁻¹] | self-cleavage kobs at 10000 uM GlcN6P (glucosamine-6-phosphate [4]) [s⁻¹]
G35A G43U C68U | < 1e-05 |  | < 1e-05 | 
G41A C68U C70U | 0.000155 ± 3.4e-05 | 0.00049 ± 8.2e-05 | 0.00138 ± 0.00025 | 
A39U G40A A64G | 0.000419 ± 0.00012 | 0.000775 ± 0.00021 | 0.00738 ± 0.0025 | 
A48C A52U | < 1e-05 | < 1e-05 | < 1e-05 | < 1e-05
A33G U45G U69A | < 1e-05 | < 1e-05 |  | 
C11G A36C U55A | < 1e-05 |  |  | 
A15C C34A | < 1e-05 | < 1e-05 | < 1e-05 | < 1e-05
A15C U31C A39U A42C | < 1e-05 |  |  | 
A42U A52C C67A | < 1e-05 |  |  | 
A6U G44U U55C | < 1e-05 | < 1e-05 | < 1e-05 | 
C8G G66A | < 1e-05 | < 1e-05 | < 1e-05 | 
G35C G40A A42U | < 1e-05 | < 1e-05 | < 1e-05 | 
C10U C11U G13A | < 1e-05 | < 1e-05 | < 1e-05 | 
U31G U49C C67U | < 1e-05 |  |  | 
C34U A36G | < 1e-05 | < 1e-05 | < 1e-05 | 
G37A G44A U46C A48U C71U | < 1e-05 | < 1e-05 | < 1e-05 | 
A14U U30A A33U G51A | < 1e-05 |  |  | 
C8G A39U U69A | < 1e-05 |  |  | 
A12G A42U G59U G63C C71U | < 1e-05 | < 1e-05 |  | 
A36G A64G C71U | < 1e-05 | < 1e-05 |  | 
C8G G63A C70G | < 1e-05 | < 1e-05 | < 1e-05 | 
C11U G29U A39C U54A | < 1e-05 |  |  | 
U49C G51C G60C C68U | < 1e-05 | < 1e-05 | < 1e-05 | 
G35U G37C U45C | < 1e-05 |  | < 1e-05 | 
A12U A14C U47A | 0.000117 ± 2.3e-05 | 0.000593 ± 0.00011 | 0.00107 ± 0.00025 | 
G9A U31C G51U G59U C68G | < 1e-05 |  |  | 

Variant | self-cleavage kobs at 160 uM GlcN6P (glucosamine-6-phosphate [1]) [s⁻¹] | self-cleavage kobs at 640 uM GlcN6P (glucosamine-6-phosphate [2]) [s⁻¹] | self-cleavage kobs at 2500 uM GlcN6P (glucosamine-6-phosphate [3]) [s⁻¹] | self-cleavage kobs at 10000 uM GlcN6P (glucosamine-6-phosphate [4]) [s⁻¹]
A33U C50U C61A C68G C70U | 0.000144 ± 4.4e-05 | 0.000229 ± 6.4e-05 |  | 
A64U C70A | < 1e-05 |  |  | < 1e-05
C8G G38A | < 1e-05 | < 1e-05 | < 1e-05 | < 1e-05
A39U G40C U46C | 5.92e-05 ± 1.4e-05 | 0.000338 ± 5.3e-05 | 0.000277 ± 7.4e-05 | 
G40A G51C | < 1e-05 | < 1e-05 |  | < 1e-05
A36U U47A G66U C70G C71U | 4.68e-05 ± 2.2e-05 |  | 0.00104 ± 0.00043 | 
U30G U47G | 0.000169 ± 4.9e-05 | 0.00043 ± 0.00012 | 0.00098 ± 0.0002 | 
G7C U47A | < 1e-05 | < 1e-05 |  | < 1e-05
G7U U49G | < 1e-05 | < 1e-05 | < 1e-05 | < 1e-05
G43C U54A G60C | < 1e-05 | < 1e-05 |  | 
U30G G37U | < 1e-05 | < 1e-05 |  | < 1e-05
G13A A42U | < 1e-05 | < 1e-05 |  | 
G13C G40U G59C | < 1e-05 | < 1e-05 | < 1e-05 | 
G9U U30G G35U G51A | < 1e-05 | < 1e-05 |  | 
C8A G13A G43U G51U | < 1e-05 |  | < 1e-05 | 
G29A G40C U55A U56G C67U | < 1e-05 | < 1e-05 | < 1e-05 | 
G35C U65C G66A | < 1e-05 | < 1e-05 | < 1e-05 | 
C16U G40C C50A C67G | < 1e-05 | < 1e-05 |  | 
A42U C61A | < 1e-05 | < 1e-05 | < 1e-05 | < 1e-05
A28G U30G C67U C71U | 4.89e-05 ± 2e-05 | 7.62e-05 ± 1.3e-05 | 0.000204 ± 5.3e-05 | 
C10U G51A U55C | < 1e-05 |  | < 1e-05 | 
A14U G29A G63U | < 1e-05 |  | < 1e-05 | 
C10G U31A U49G | < 1e-05 |  |  | 
G51C C67G | < 1e-05 |  |  | < 1e-05
C10A U56C | < 1e-05 | < 1e-05 | < 1e-05 | 
G7A A36G | < 1e-05 | < 1e-05 | < 1e-05 | 

Variant | self-cleavage kobs at 160 uM GlcN6P (glucosamine-6-phosphate [1]) [s⁻¹] | self-cleavage kobs at 640 uM GlcN6P (glucosamine-6-phosphate [2]) [s⁻¹] | self-cleavage kobs at 2500 uM GlcN6P (glucosamine-6-phosphate [3]) [s⁻¹] | self-cleavage kobs at 10000 uM GlcN6P (glucosamine-6-phosphate [4]) [s⁻¹]
U30A A39G A48G C61U | < 1e-05 |  | < 1e-05 | 
A14C G66A C71U | 0.000171 ± 5.4e-05 | 0.000399 ± 9.8e-05 | 0.00114 ± 0.00023 | 
C10A C34G A36G A39C U65A | < 1e-05 |  | < 1e-05 | 
C10G G32C A48U C61G | < 1e-05 | < 1e-05 |  | 
C34A G38U A53C | < 1e-05 | < 1e-05 | < 1e-05 | 
G7A A33C A42C A48C | < 1e-05 |  | < 1e-05 | 
G9C A14G G59U | < 1e-05 |  |  | 
A6C G35C G41A G62A | < 1e-05 | < 1e-05 |  | 
G44U G62A | < 1e-05 | < 1e-05 | < 1e-05 | 
G41A A53U U54G | 0.000102 ± 3.4e-05 | 0.000241 ± 8.7e-05 | 0.000742 ± 0.0002 | 0.000285 ± 7.8e-05
A15U G43U U56A C68A | 0.000115 ± 3.5e-05 |  | 0.00532 ± 0.0014 | 
C10A A15G C34A G44A C67A C68A | < 1e-05 | < 1e-05 | < 1e-05 | 
C8G A14G A15U G41C U47G U56A | < 1e-05 | < 1e-05 | < 1e-05 | 
A33U A36U | < 1e-05 | < 1e-05 | < 1e-05 | < 1e-05
A36G U49A | < 1e-05 | < 1e-05 | < 1e-05 | < 1e-05
A14U A33C G59A | < 1e-05 | < 1e-05 | < 1e-05 | 
A6C A36G U47G | < 1e-05 | < 1e-05 |  | 
G7A C8A U49G | < 1e-05 |  | < 1e-05 | < 1e-05
U30C G43U | < 1e-05 |  | < 1e-05 | < 1e-05
G9C U56C C67U C71G | < 1e-05 | < 1e-05 | < 1e-05 | 
G32A G44C G66A C68A | < 1e-05 | < 1e-05 | < 1e-05 | 
A6U C10U | < 1e-05 |  | < 1e-05 | 
C11U G29U G40A | < 1e-05 | < 1e-05 |  | 5.39e-05 ± 1.7e-05
